± gives the standard deviation of the averaged measurements.
Assays:
[1] = purified protein yield per well (BCA); higher = higher soluble expression
How it was run: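 Candidate enzymes were produced in E. coli C41(DE3) grown in 2 mL autoinduction cultures containing 100 µg/mL kanamycin, first at 37 °C for 2 h and then at 18 °C for 40 h. After cell lysis, protein was captured on Ni-charged magnetic beads and freed by SUMO protease cleavage on an OT-2 robot. Purified protein yield per well was read with the Pierce Rapid Gold BCA kit. Values under 25 ug (0.1 mg/mL) fall below the detection threshold.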

[2] = melting temperature (DSF); higher = more thermostable
Method: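 Candidate PET hydrolases were expressed in E. coli C41(DE3) in 2 mL autoinduction cultures in 24-deep-well plates, Ni-bead purified and released by SUMO protease cleavage on an OT-2 robot. Yield per well was measured by BCA; values below 25 ug (0.1 mg/mL) are below the detection threshold. Melting temperature was measured by differential scanning fluorimetry with Sypro Orange, ramping from 25 C at 0.3 C/step.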

[3] = PET hydrolysis, aromatic products released after 48 h (umol product/mg enzyme); higher = more PET depolymerization activity
Method: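 HTP-purified, SUMO-cleaved, tagless PET hydrolase candidates (5 ug, 1.43 mg/g PET) were incubated 48 h without shaking with 3.5 mg amorphous PET film (aFilm) or crystalline PET powder (cryPow) in 0.5 mL buffer: NaCitrate pH 4.5/5.5, NaPhosphate pH 6.5/7.5, glycine pH 8.5. Incubation was at 40 or 60 C. Aromatic products (TPA, MHET, BHET) in the supernatant were quantified by UV absorbance at 260/280 nm relative to buffer blanks and expressed per mg enzyme. LCC-ICCG was the positive control on every plate.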

[4] = substrate: cryPow, 40 °C, pH 5.5
[5] = substrate: cryPow, 40 °C, pH 6.5
[6] = substrate: cryPow, 40 °C, pH 7.5
[7] = substrate: cryPow, 40 °C, pH 8.5
[8] = substrate: cryPow, 40 °C, pH 4.5
[9] = substrate: cryPow, 60 °C, pH 4.5
[10] = substrate: cryPow, 60 °C, pH 5.5
[11] = substrate: cryPow, 60 °C, pH 6.5
[12] = substrate: cryPow, 60 °C, pH 7.5

ADNPYERGPAPTTASIEAVRGPYAVSEYRVSSLAATGFGGGTIHYPTTTADGTFGAIAVSPGYTGTESTIAWLGPRLASQGFVVFTIETLTLFDQPDSRGRQLLAALDHLTRVSPLRGRVDSSRLGVMGHSMGGGGSLEAAKSRPSLQAAVPLTPWNLDKTWPELRTPTLVVGADGDSIAPVRSHAEPFYESLPSSLDRAYLELNGASHFAPNSPDTTIAKYSIAWLKRFIDNDTRYEQFLCPLPRPSLTIEEYRGNCPHTS [TEP138]
purified protein yield per well [1]: 28 µg | melting temperature [2]: 36.1 C

DSPYERGPDPTTSSIEASSGPFDVDEDSVSSWSVSGFGGGTVYYPEDDGQTYGGVVIAPGYTESSSAMAWLGEYLASHGFVAFNIDTNTRYDQPDSRGRQIEAALDYLAEDSDVSDLVDPNRLAAMGHSMGGGGTLAAAEDRPELKAAIPLTPWHTDKTWGGVTVPTMIIGAENDTIAPNSSHSIPFYNSLSTSTERAYVELDGEGHLVTSSRNTELASNSVSWLKVFVDEDDRYEQFLCPAPSTGWGSPYSDYRDSCPYI [DP033]
PET hydrolysis [3, 4]: < 3 | PET hydrolysis [3, 5]: < 3 | PET hydrolysis [3, 6]: < 3 | PET hydrolysis [3, 7]: < 3 | purified protein yield per well [1]: 31 µg

DTGSHERGPDPTEQALEARSGPFDTDDERVSSLGASGFGGGTIYYPEDTSEGDFGAVALAPGYTASSTSYSSLAERIASHGFVVLAFDTNTRYDQPNSRGRQMESALEYLTEDSDVTDRIDTDRQAVSGHSMGGGGTLAAADDNPDLQAAVPLTPWHTQKSWSGMQVPTMIIGAENDSIASVRSHSIRFYESLPGSLEKGYAEVDGASHFAPNSNDDTVAKYTITWLKRFVDNDTRYEQFLCPPPDSGGWGDDLSDYRDSCPTG [DP052]
PET hydrolysis [3, 4]: < 3 | PET hydrolysis [3, 5]: < 3 | PET hydrolysis [3, 6]: < 3 | PET hydrolysis [3, 7]: < 3 | purified protein yield per well [1]: 36 µg

DTNPFQRGPAPTEASVSAQKGPFATAQVNVPANSGEGFNDGTIYYPTDTSQGTFGAIAVMPGFLSPQDWIRWYGPTLASQGFVVMTLDSKGFIDSPTARGNQLLAALDYLTTKSKVVDRIDTSRLGVVGWSMGGGGALESTYNRPSLKADVALAPWHVGLDQSKITVPSLILADDNDWLAPTGSFAKPFYAGIPESTNKAFIELKNANHFTFTGYNKNIAKYAVSWLKRFVDDDTRYDQFLCPKPATNNEISQSEETCPLH [DP054]
PET hydrolysis [3, 4]: 5 | PET hydrolysis [3, 5]: 7 | PET hydrolysis [3, 6]: < 3 | PET hydrolysis [3, 7]: < 3 | purified protein yield per well [1]: 39 µg

GESPGAAVVAFAGHAKGPAPTEQSVRAQQGPFTTDKLVVPAQAGRGFNKGTIYYPDDTSQGTFGAVAVIPGFLEGESAISWLGPTLASHGFITLTLAPNATTDYPEPRSNQLLAAVDWLANQSPVKDRVDPNRLAVAGHSMGGGGTLIAASKNPALKAAVPLTPWNPHSNFSDVTVPTLIIGADRDFIAPTFMHASPMYNSLKAKQDQAYLKLKNADHFATNRYNATATAYTVSWLKRYVDEDTRYSQFLCPVKSGFQLTCPI [DP011]
PET hydrolysis [3, 4]: < 3 | PET hydrolysis [3, 5]: < 3 | PET hydrolysis [3, 6]: < 3 | PET hydrolysis [3, 7]: < 3 | purified protein yield per well [1]: 26 µg

MHPTPDRAKVLPVNVSRGPAEPPAARSARPGGRSAPDGLRPGRRRPVPSSEQGATDVQSHPPTPANRRTRTVATLALALTLVGGAGAIAPTAHAAAGHERGPNPTSAALEASRGPFSVSSTTVSSLSASGFGGGTIYYPNDTGQGTFGGVIVAPGFTASRSTMAWLAERLASHGFVVFNIDTITRSDQPDSRGRQLLAAADHLAEESSPAVRSRLDAGRIGVMGHSMGGGGTLAAAESRPSLQAAVPLTPWHTDKSWGSVQVPTMIIGAENDSVAPVSSHAEPFYNSLSSAQEKAYLELNGASHFAPNSSNSTLAKYSIAWMKRFVDDDLRYDQFLCPAPGRSTRIEEYRSSCPH [TEP081]
PET hydrolysis [3, 8]: < 3 | PET hydrolysis [3, 4]: < 3 | PET hydrolysis [3, 5]: < 3 | PET hydrolysis [3, 6]: < 3 | purified protein yield per well [1]: 35.7 µg

MPQQAQAGPGNPYERGPAPTEASVTAERGPFAVSQKAVPESADGRFNKGTVYYPTDTSQGTFGAVAISPGFVSPEAAVGWLGPRLASQGFVVMTLETNTPLDFPDQRADQLLGALDWLTTSSDVRERIDASRLAVAGHSMGGGASLRASEKRPTLQAAVPLTPWHTDKTWEKDPVPTLVVGAENDTVAPVAEHAEPFYSSLSAAPEKAYLELEGADHLAPVAPNVTVAKYAISWLKRYVDDDTRYEQFLCPPPRPSSTISEYRDTCPGS [TEP193]
PET hydrolysis [3, 8]: < 3 | PET hydrolysis [3, 4]: < 3 | PET hydrolysis [3, 5]: < 3 | PET hydrolysis [3, 6]: < 3 | purified protein yield per well [1]: 50.4 µg

MSNPYQRGPNPTRSALTADGPFSVATYTVSRLSVSGFGGGVIYYPTGTSLTFGGIAMSPGYTADASSLAWLGRRLASHGFVVLVINTNSRFDGPDSRASQLSAALNYLRTSSPSAVRARLDANRLAVAGHSMGGGGTLRIAEQNPSLKAAVPLTPWHTDKTFNTSVPVLIVGAEADTVAPVSQHAIPFYQNLPSTTPKVYVELCNASHIAPNSNNAAISVYTISWMKLWVDNDTRYRQFLCNVNDPALCDFRTNNRHCQLEHHHHHH [LCC-ICCG]
PET hydrolysis ([3]; substrate: aFilm, 40 °C, pH 4.5): 8.5 ± 1.9 | PET hydrolysis ([3]; substrate: aFilm, 40 °C, pH 5.5): 17.4 ± 9.2 | PET hydrolysis ([3]; substrate: aFilm, 40 °C, pH 6.5): 38.1 ± 12 | PET hydrolysis ([3]; substrate: aFilm, 40 °C, pH 7.5): 58.9 ± 20 | PET hydrolysis ([3]; substrate: aFilm, 40 °C, pH 8.5): 73 ± 30 | PET hydrolysis ([3]; substrate: aFilm, 60 °C, pH 4.5): 60.8 ± 8 | PET hydrolysis ([3]; substrate: aFilm, 60 °C, pH 5.5): 448 | PET hydrolysis ([3]; substrate: aFilm, 60 °C, pH 6.5): 820 ± 23 | PET hydrolysis ([3]; substrate: aFilm, 60 °C, pH 7.5): 965 ± 100 | PET hydrolysis ([3]; substrate: aFilm, 60 °C, pH 8.5): 584 | PET hydrolysis [3, 8]: 20.1 ± 5.3 | PET hydrolysis [3, 4]: 51.5 ± 15 | PET hydrolysis [3, 5]: 94.5 ± 18 | PET hydrolysis [3, 6]: 130 ± 20 | PET hydrolysis [3, 7]: 113 ± 14 | PET hydrolysis [3, 9]: 56.2 ± 7.2 | PET hydrolysis [3, 10]: 121 ± 18 | PET hydrolysis [3, 11]: 208 ± 33 | PET hydrolysis [3, 12]: 236 ± 3 | melting temperature [2]: 93.6 C

QAPTRESLGAQGPYQVAYYSNFPAVQEFTAGTIYFPANKAQTFGAVAISPGFAERQENMSWWGRHLASHGFAVLTLDTNELRDDPAIRAEALMAALRVLSGESEREGSPLRGKIDTNRMAIMGHSMGGGGTLLAANTHSSELKAAIPFTPWQPDGDFSDVTVPTLIIAGEIDRVAPVNDHAWPHYQSLSASNPRLYLEIRGGNHFIANTAT [TEP038]
PET hydrolysis [3, 8]: < 3 | PET hydrolysis [3, 4]: < 3 | PET hydrolysis [3, 5]: < 3 | PET hydrolysis [3, 6]: < 3 | purified protein yield per well [1]: 52.1 µg

QSNPYERGPAPTESSIEATRGSFSVSDKNVSSFSASGFGGGTIYYPTDTSQGTFGGVAISPGFTAGESSIAWLGPRIASQGFVVITIDTNSRYDQPNSRADQLQAALDHIVADSTVGSRIDPNRLAVMGHSMGGGGSLKAAEDNADLQAAVPLQPWHTQKNWSDVEVPTLIIGAENDSVASVTTHSKPFYTSLPDDLDKAYLELDGASHFVSNTPDTTTAKYSISWLKRFVDDDTRYEQFLCPAPDDRTISEYRDTCPHSGGGGTTPTTTPTTLPPDDDCAWWQWWC [DP057]
PET hydrolysis [3, 4]: < 3 | PET hydrolysis [3, 5]: 10 | PET hydrolysis [3, 6]: 29 | PET hydrolysis [3, 7]: 31 | purified protein yield per well [1]: 34 µg

QVAIFQESFSSGLGGFTATGTVGTSTGAARMEGCYGCTDGAITSGAISTQGFTGLSLSFDRVTSGLDSGEAGIAEYSTNGSTWTAVESTRVTTNGRVTFSLPDTAAGQAALRLRFRIDASLSSETYTVDNVQLTGIPGDTGTNPYAKGPNPTTSMLESSTGPFTYATTNVSEFSASGYGGGTIYHPTNVAGPFAAIAISPGYTGTKSTMSWWGERLASHGFVVITIDTNSIYDQPYERAPQLMAALRQLVTFSNTSSHPIYRKVDPNRLGVMGHSMGGGGTLIAARDNPTLKAAIPLAPWNTSTDFSSVRVPTLVVACESDTIAPVSQHASPFYNSIPASATKKAFMEMNNGDHFCVMTGNDYTRIMGKYGVAWMKRFMDNDTRYSPFLCGAPHQADLSNIQISEYRENCPY [DP048]
PET hydrolysis [3, 4]: < 3 | PET hydrolysis [3, 5]: < 3 | PET hydrolysis [3, 6]: < 3 | PET hydrolysis [3, 7]: < 3 | PET hydrolysis [3, 10]: < 3 | PET hydrolysis [3, 11]: < 3 | PET hydrolysis [3, 12]: < 3 | PET hydrolysis ([3]; substrate: cryPow, 60 °C, pH 8.5): < 3 | purified protein yield per well [1]: 56 µg

SNPTPTPTPTPTPTPTPGNNPFQRGPNPTLSFIEANSGPYSVRTSRVSSYTSGFGGGTIHYPTGQSGTMGAIVVIPGFVSAESSIEWWGPKLASHGFVVMTIDTNSGFDQPPSRARQINAALDYLVAQNRSSRSPVRGMIDTNRLGVVGWSMGGGGTLRVASEGRIKAAIPLAPWDTTSFRNVKAPTLIFACESDVIAPVGQHASPFYNELPSNISKAFVELNGGSHYCGNGGNSYNDVLSRFGVSWMKRFLDNDTRYSQFLCGPNHTSDRDISEYRGNCNY [ESM042]
PET hydrolysis [3, 8]: < 3 | PET hydrolysis [3, 4]: < 3 | PET hydrolysis [3, 5]: < 3 | PET hydrolysis [3, 6]: < 3 | PET hydrolysis [3, 9]: < 3 | PET hydrolysis [3, 10]: < 3 | PET hydrolysis [3, 11]: < 3 | PET hydrolysis [3, 12]: < 3 | purified protein yield per well [1]: 73.3 µg

TAGAEPSGGAPAAGGSGCGDVADPAAQGPLHVQTYSSGLRDGPDYGSQTMHYPTDGAPPYPALVIVPGFMSLESSIADHGPHFASHGIVTLTIGTNSTMDQPPARSEALLDALETIRAEHTRAGGPLEGKLDLSRLGVMGWSMGGGGTLITVDDHPELKAAITLCAWNPGQTYRNNQVPTLLFAGTADTLAGG [TEP195]
PET hydrolysis [3, 8]: < 3 | PET hydrolysis [3, 4]: < 3 | PET hydrolysis [3, 5]: < 3 | PET hydrolysis [3, 6]: < 3 | purified protein yield per well [1]: 30.1 µg

VPVVPAQQENPYQRGPDPTPESVEAPRGSFAIEKATIARGSVQGFGGGTIYYPTDTAEGTFGAVAISPGFTESQSAISWYGERLATQGFVVFTIDTNGGLDQPDSRADQLLAALDFLTGSSEVKDRIDASRLGVLGHSMGGGGSLSAAKKRPALQAAVPLAPWHTNSNWSDVTVPTLIVGAENDAVAPVGMHAEPFYAGLTKAPEKAYLELKGADHFVTNSPNTVIAKSTLSWLKRFIDDDTRYDQFLCPPPKPDNDISEYRDTCPN [DP051]
PET hydrolysis [3, 4]: < 3 | PET hydrolysis [3, 5]: < 3 | PET hydrolysis [3, 6]: < 3 | PET hydrolysis [3, 7]: < 3 | purified protein yield per well [1]: < 25 µg
